In the supplement of paper PMC9170038:

Tested on: MS2 coat protein
Assay: apparent KD of MS2 coat protein; designed switch direction (-1 OFF switch, 1 ON switch): -1; higher = weaker reporter binding
How it was run: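 Stalled E. coli RNA polymerase transcribed designed RNA switches on Illumina chips, which were then titrated with SNAP-549-labelled MS2 coat protein, doubling from 0.7 or 1.5 nM to 3 µM. Steps lasted from 0.8–1.5 h at the lowest concentration to 10–20 min at the highest. The apparent KD is each design's median over clusters of curve-fitted normalised fluorescence.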

[1] = input ligand: microRNA oligo, concentration not stated
[2] = Eterna round: R95, input ligand: microRNA oligo, concentration not stated
[3] = Eterna round: R95, input ligand: FMN 200 uM
[4] = Eterna round: R95, input ligand: none

Sequence | apparent KD of MS2 coat protein (input ligand: FMN 200 uM) | apparent KD of MS2 coat protein (input ligand: none) | apparent KD of MS2 coat protein [1] | apparent KD of MS2 coat protein [2] | apparent KD of MS2 coat protein [3] | apparent KD of MS2 coat protein [4]
AAAACUGGUGUUAGGAUAUUCCUAGGAAAGCUUGGGAAGAAGGGACAUGAGGAUCACCCAUGUCCAGUGAUCAG [Eternabot (Original) Solution 19] (Eterna round: R97, puzzle: Brourd's mod of Exclusion 4) | 19.1 nM | 21.6 nM | – | – | – | –
CCGAUCAGUGUCAGGAUAUCUACAGGACUGCCUCGAGAGAAGGGACAUGAGGAUCACCCAUGUACCCGGGCAAG [BmEX4 B.2] (Eterna round: R97, puzzle: Brourd's mod of Exclusion 4) | 15 nM | 12.8 nM | – | – | – | –
AAAUAGCUAGAGGAUAUUGGAUAGGAUUUAAUACGAGAAGGUUAGACAUGAGGAUCACCCAUGUUGUGUUGGGA [EX6 #17] (Eterna round: R97, puzzle: Exclusion 6) | 51.3 nM | 48.5 nM | – | – | – | –
UAACUACAUGAGGAUCACCCAUGUCAGGAUAUGCCAUUAAAUUAACAUCAACAUACGGGUAGAAGGGACAACGU [1st #2] (Eterna round: R97, puzzle: Exclusion 1) | 22.2 nM | 25.6 nM | – | – | – | –
AUUUAAUUUAGCGAGAUCACAUGAGGAUCACCCAUGUAUAUAUAGGAUAUCAGCUCGAUUAGAGCUGAGAAGGAUAUAUACCGC [ExNG3/7-A1] (Eterna round: R96, puzzle: Exclusion NG 3) | 170 nM | 82 nM | 98.7 nM | – | – | –
CUGGUGUGAGGAUAUCAGGACACGUAAGCGGGCGUGUCAAAUGAGAAGGCACAUGAGGAUCACCCAUGUGGGAC [Atbeceesxe] (puzzle: Exclusion 4) | – | – | – | 27.8 nM | – | –
GGUGAGCGAGGAUAUACAUGAGGAUCACCCAUGUGACGCUGUCCUUGGAAGAACCUCUGUAGAAGGCGCGGAAU [Veisrien] (Eterna round: R97, puzzle: Exclusion 3) | 23.5 nM | 162 nM | – | – | – | –
CUUAGACAUGAGGAUCACCCAUGUGAGGAUAUGAUGAGGAUAAGGAAGGAAGAAGGAAUCAGAAGGCACAUAUG [Mat - Mod of Hyphema D27] (puzzle: Exclusion 1) | – | – | – | 69.4 nM | 102 nM | 74.2 nM
UGUUGUCGCGCAGGAUAUGUAUGAGGAUCACCCAUAAGAGUAUAUUUACCAUGAGGAUCACCCAUGUAGAAGGGCGGGACAACA [pwkr exNG2 2xF5 1xFMN.11] (Eterna round: R96, puzzle: Exclusion NG 2) | 105 nM | 73.6 nM | 46.6 nM | – | – | –
UAGAUGGGAGGAUAUACGUAGUUGCAGGUUCGUGUGGUGCUACAUGAGGAUCACCCAUGUAGAAGGCCCGUCUU [JL-ex2-2.30 Mayanne mod] (puzzle: Exclusion 2) | – | – | – | 13.3 nM | – | –
AGGCGGAAAGUAAGGAUAUCUUGACCAAAGGGUUGAGAGAAGGUACAUGAGGAUCACCCAUGUGUUUACCGCCA [Shrinking Claw (Vienna2)] (Eterna round: R97, puzzle: Brourd's mod of Exclusion 4) | 12.4 nM | 12.9 nM | – | – | – | –
UGUACGAUGCGUGCUGACAUGCGUCGUGCAGCAGGUGUUACAUGAGGAUCACCCAUGUCCUCAUUUGCUCGUCUUAU [SL-sv3-2.08 JL mod] (puzzle: Sensor v3, turn-off variant 2) | – | – | – | 250 nM | 250 nM | 337 nM
ACAAGCUUUUUGUUCGUCUUAUACACUCCUAAGAGGACAACAUGAGGAUCACCCAUGUAACAAAGACGAACUCAUGU [Sesor Array 10 - Jieux - Sensor v3, turn-off variant 2] (puzzle: Sensor v3, turn-off variant 2) | – | – | – | 96.3 nM | 14.3 nM | 11.4 nM
AAUGCGAGUGUUAGGAUAUACAAGGAUCCAUAUUUGUAGAAGGAACAUGAGGAUCACCCAUGUAAGGGAAUAAA [Enususxebe] (puzzle: Brourd's mod of Exclusion 4) | – | – | – | 59.5 nM | 166 nM | 65.7 nM
GUUAAACAUGAGGAUCACCCAUGUAAGGAUAUGCUGCGGUCGCGCUGACGUGACUGCAGCAGAAGGUACAAAUG [Mat - Mod of JL D57] (puzzle: Exclusion 1) | – | – | – | 76.4 nM | – | –
GACUGCUGAGGAUAUACAUGAGGAUCACCCAUGUGCUUCAGCAUCGAAAGAUGCAUUGGUAGAAGGUAGUAGUC [LRO-Excl3-06] (puzzle: Exclusion 3) | – | – | – | 10.9 nM | – | –
CUCUUGGCAGGAUAUGCUUUUUUAGACAUGAGGAUCACCCAUGUGAUGAAUAUUGGGUUCGCAGAAGGGCCUGAAU [JR_E5_Sub040] (puzzle: Exclusion 5) | – | – | – | 48.4 nM | – | –
UGUUGUCGCGUAGGAUAUUGUCAACAGGCAAUAGGAUAUGCGAAAGCAGAAGGAUCGCCAACAGGCGAGAAGGACGGGACAACU [pwkr exNG2 2xF7 2xFMN.5] (Eterna round: R96, puzzle: Exclusion NG 2) | 142 nM | 1140 nM | 913 nM | – | – | –
ACUUAUCAUGUAGGAUAUGCGUGGCGAAGCUAUGCAGAAGGACAUGAGGAUCACCCAUGUUUUAGCGUCUGCGUACAGAUGCGU [JL ENG1 1.45] (Eterna round: R96, puzzle: Exclusion NG 1) | – | – | 39 nM | – | – | –
ACGAUGACAGAAAGAAGUCAAAAGACAUGAGGAUCACCCAUGUAGGAUAUGGCUACGAAAAGUAGUCAGAAGGACUUGUCAUCA [Omei Exc(NG) 3 Av2] (Eterna round: R96, puzzle: Exclusion NG 3) | 13.1 nM | 14.3 nM | 9.48 nM | – | – | –
GCAGGCUUUUGCUCGCCUUACAUGAGGAUCACCCAUGUGGGCCCGGGCCCGGGCCCGCCGGGCCCGGGCCCGGGCCC (Eterna round: R97, puzzle: Sensor, turn-off variant 1) | 30.8 nM | 32.1 nM | – | – | – | –
CAGACCCGCCUUGGUCACAUGAGGAUCACCCAUGUUUAGGUCUAGGAUAUGGCCGUCGAGGACGGCCAGAAGGAGAAUAUCAUG [Eternabot solution 34] (Eterna round: R96, puzzle: Exclusion NG 3) | 102 nM | 43 nM | 32.1 nM | – | – | –
GAGAUGUGAGGAUAUCUGGACCGUGGAAGAGCCACGGUCCGAGAGAAGGCACAUGAGGAUCACCCAUGUGAUGA [Inerusce] (puzzle: Exclusion 4) | – | – | – | 42.8 nM | – | –
UUUACAAGCUUAUGAUCCCACAUGAGGAUCACCCAUGUUGCUGCCGUGAGGUAGCUUUUAACAUAUGCUCGUCUUAU [JL TOV1 3.39] (Eterna round: R97, puzzle: Sensor, turn-off variant 1) | 764 nM | 838 nM | – | – | – | –
ACUAGAUGAGGAUAUACACAUUUUAGUGUUCCUCUAGAUUAACAUGAGGAUCACCCAUGUAGAAGGCAUCAAUU [Exclusion 2 - 11] (Eterna round: R96, puzzle: Exclusion 2) | 294 nM | 63 nM | 52.8 nM | – | – | –
GUCCCACAUGAGGAUCACCCAUGUGAGGAUAUGGUUUCGCUGGCCGUAGCCAGUGGAACCAGAAGGCGCGUGAU [Mat - Exclusion 1 - JL Mod - D17] (Eterna round: R97, puzzle: Exclusion 1) | 75 nM | 74.7 nM | – | – | – | –
